Target: PADI4 (peptidyl-arginine deiminase 4), recombinant, dimeric (human) (UniProt Q9UM07)
Assay: BLI

Chain of PADI4 (peptidyl-arginine deiminase 4), recombinant, dimeric (human) (Q9UM07 whole entry): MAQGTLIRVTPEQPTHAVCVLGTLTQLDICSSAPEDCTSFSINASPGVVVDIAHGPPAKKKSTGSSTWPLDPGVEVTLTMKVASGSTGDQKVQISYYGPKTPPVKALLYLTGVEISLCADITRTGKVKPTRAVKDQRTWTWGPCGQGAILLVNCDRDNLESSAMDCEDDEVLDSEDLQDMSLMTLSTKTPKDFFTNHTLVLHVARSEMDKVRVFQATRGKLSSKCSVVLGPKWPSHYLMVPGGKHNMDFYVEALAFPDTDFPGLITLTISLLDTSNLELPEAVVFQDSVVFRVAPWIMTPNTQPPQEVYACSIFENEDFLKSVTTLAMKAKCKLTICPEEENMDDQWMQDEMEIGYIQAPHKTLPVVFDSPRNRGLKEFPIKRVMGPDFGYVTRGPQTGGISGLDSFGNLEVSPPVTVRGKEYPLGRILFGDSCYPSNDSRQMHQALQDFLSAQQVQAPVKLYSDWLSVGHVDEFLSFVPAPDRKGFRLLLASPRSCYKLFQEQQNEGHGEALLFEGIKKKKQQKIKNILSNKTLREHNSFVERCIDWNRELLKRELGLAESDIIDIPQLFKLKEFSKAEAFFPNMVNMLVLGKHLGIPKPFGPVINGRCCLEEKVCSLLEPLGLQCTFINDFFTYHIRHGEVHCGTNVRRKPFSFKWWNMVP

Question: “N-MDM2 derived from GST-tagged N-MDM2, GST-tag removed with thrombin (domain or fragment)” was tested. Which Kd did it give?
Answer: 2 µM

Question: What about the koff of the same substance?
Answer: 0.3 s⁻¹

Question: What about the kon of the same substance?
Answer: 170000 M⁻¹ s⁻¹

— article PMC10364586
